# Measured values reported in patent publication US20120065365A1, “Stable Radiopharmaceutical Compositions and Methods for Their Preparation” (BRACCO IMAGING S.P.A., priority 2003, published 2012).
# Like-named read-outs stand apart in the source and are kept apart here.
# Assays:
# [1] = type: physicochemical; conditions: 50 mCi/2 mL in Radiolysis Protecting Solution containing L-methionine, room temperature
# Experimental: The injection volume was 20 μL.
# A Radiolysis Protecting Solution was prepared to contain 10 mg/mL gentisic acid; 50 mg/mL ascorbic acid sodium salt; 2 mg/mL HSA; 2.98 mg/mL L-methionine, 0.9% (v:v) benzyl alcohol and 1 mg/mL of Na2EDTA.2H2O in 0.05 M, pH 5.3 citrate buffer. […] The mixture was incubated at 100° C. for 5 min, and then cooled to room temperature with a water bath. A 1-mL aliquot of the Radiolysis Protecting Solution was immediately added. The reaction vial was stored in an autosampler chamber and the stability was analyzed by Reversed Phase HPLC over time, using HPLC Methods 3 and 4. The results obtained for ^177Lu-B are shown in the chromatograms in FIG. 9.
# [2] = type: physicochemical; conditions: Radiolysis Protecting Solution containing L-selenomethionine, room temperature
# Experimental: ^177Lu-A and ^177Lu-B were prepared at a 50 mCi level as described in EXAMPLE 4. Immediately after cooling the reaction mixtures to room temperature, 1 mL of a Radiolysis Protecting solution was added, containing 10 mg/mL gentisic acid; 50 mg/mL ascorbic acid sodium salt; 2 mg/mL HSA; 3.92 mg/mL L-selenomethionine, 0.9% (v:v) benzyl alcohol and 1 mg/mL of Na2EDTA.2H2O in 0.05 M, pH 5.3 citrate buffer. The reaction vials were stored in the autosampler chamber and the stability was analysed by RP-HPLC over time using HPLC Methods 3 [^177Lu-A] or 4 [^177Lu-B].
# [3] = type: physicochemical; conditions: 50 mCi/2 mL, Radiolysis Protecting Solution, room temperature
# Experimental: ^177Lu-A and ^177Lu-B were prepared at a 50 mCi level as described in EXAMPLE 4. Immediately after cooling the reaction mixtures to room temperature, 1 mL of a Radiolysis Protecting Solution was added, containing 10 mg/mL gentisic Acid; 50 mg/mL ascorbic acid sodium salt, 2 mg/mL HSA, (2 mg/mL or 3.52 mg/mL) L-cysteine, 0.9% (v/v) benzyl alcohol and 1 mg/mL of Na2EDTA.2H2O in 0.05 M, pH 5.3 citrate buffer. The reaction vials were stored in the autosampler chamber and the stability was analysed by RP-HPLC over time using HPLC Methods 3 [^177Lu-A] or 4 [^177Lu-B]. Similar results were obtained for ^177Lu-B.
# [4] = type: physicochemical; conditions: 50 mCi/2 mL, Radiolysis Protecting Solution with 0 mg/mL L-cysteine, room temperature
# Experimental: ^177Lu-A was prepared at a 50 mCi level as described in EXAMPLE 4. Immediately after cooling the reaction mixture to room temperature, 1 mL of a Radiolysis Protecting Solution was added, that contained 10 mg/mL gentisic acid; 50 mg/mL ascorbic acid sodium salt; 2 mg/mL HSA; 0.9% (v:v) benzyl alcohol and 1 mg/mL of Na2EDTA.2H2O in 0.05 M, pH 3.3 citrate buffer. The reaction vial was stored in an autosampler chamber and the stability was analysed by RP-HPLC over time.
# [5] = Stability in Radiolysis Protecting Solution containing methionine (FIG. 4 and similar study); type: physicochemical; conditions: methionine in the radiolysis protecting solution increased to 3 mg/mL
# Experimental: Formulations stabilized by such cocktails maintained excellent radiochemical purity (RCP) values (>95% RCP) for as long as 5 days at room temperature. This stabilizing cocktail is added immediately after formation of the radioactive complex, so would be the second vial of a two-vial kit.
# [6] = type: physicochemical; conditions: 55 mCi/2 ml, 1 mL radiolysis protecting solution (L-cysteine) added after complex formation, room temperature
substance,measurement,setting,value
^177Lu-A: the ^177Lu complex of DOTA-Gly-ACA-Gln-Trp-Ala-Val-Gly-His-Leu-Met-NH2,% RCP 0-d,[1]; 0 d,100%
same,% RCP 1-d,[1]; 1 d,100%
same,% RCP 2-d,[1]; 2 d,100%
same,% RCP 5-d,[1]; 5 d,100%
same,% RCP 0-d,"[2]; 50 mCi level, 0 d",97.6%
same,% RCP 1-d,[2]; 1 d,98.2%
same,% RCP 2-d,[2]; 2 d,97.5%
same,% RCP 3-d,[2]; 3 d,97.8%
same,% RCP 5-d,[2]; 5 d,99.4%
same,% RCP 0-d,[3]; L-cysteine 1.0 mg/mL,100%
same,% RCP 1-d,[3]; L-cysteine 1.0 mg/mL,99.9%
same,% RCP 2-d,[3]; L-cysteine 1.0 mg/mL,98.4%
same,% RCP 3-d,[3]; L-cysteine 1.0 mg/mL,97.5%
same,% RCP 5-d,[3]; L-cysteine 1.0 mg/mL,96.9%
same,% RCP 0-d,[3]; L-cysteine 1.75 mg/mL,100%
same,% RCP 1-d,[3]; L-cysteine 1.75 mg/mL,99.9%
same,% RCP 2-d,[3]; L-cysteine 1.75 mg/mL,98.9%
same,% RCP 3-d,[3]; L-cysteine 1.75 mg/mL,95.8%
same,% RCP 5-d,[3]; L-cysteine 1.75 mg/mL,93.3%
same,% RCP 0-d (first value of cell),[4]; 0 d,100/100%
same,% RCP 0-d (second value of cell),[4]; 0 d,100/100%
same,% RCP 1-d (first value of cell),[4]; 1 d,94.9%
same,% RCP 1-d (second value of cell),[4]; 1 d,99.2%
same,% RCP 2-d (first value of cell),[4]; 2 d,93.6%
same,% RCP 2-d (second value of cell),[4]; 2 d,97.3%
same,% RCP 3-d (second value of cell),[4]; 3 d,ND/95.1%
same,% RCP 5-d (first value of cell),[4]; 5 d,90.4%
same,% RCP 5-d (second value of cell),[4]; 5 d,92.9%
same,RCP (effective radiostabilization),[5],> 95%
same,RCP for 5 days,[6],> 95%
